Data from the supplement of paper PMC10065799, “High-throughput profiling of sequence recognition by tyrosine kinases and SH2 domains using bacterial peptide display” (eLife, 2023).

target: FGFR1 (UniProt P11362); test: phosphorylation enrichment, bacterial display (enrichment ratio); higher = better substrate or ligand; peptides without Tyr show the background
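Note: 11-residue human phosphosite peptides and single-mutation variants displayed on the E. coli surface, counted by deep sequencing, each peptide's frequency after selection divided by its frequency in the unselected input library; frequency after pTyr selection over input frequency; kinase dosed for 20-30% of maximal phosphorylation in three min.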

Chain of FGFR1 (P11362 whole entry, looked up): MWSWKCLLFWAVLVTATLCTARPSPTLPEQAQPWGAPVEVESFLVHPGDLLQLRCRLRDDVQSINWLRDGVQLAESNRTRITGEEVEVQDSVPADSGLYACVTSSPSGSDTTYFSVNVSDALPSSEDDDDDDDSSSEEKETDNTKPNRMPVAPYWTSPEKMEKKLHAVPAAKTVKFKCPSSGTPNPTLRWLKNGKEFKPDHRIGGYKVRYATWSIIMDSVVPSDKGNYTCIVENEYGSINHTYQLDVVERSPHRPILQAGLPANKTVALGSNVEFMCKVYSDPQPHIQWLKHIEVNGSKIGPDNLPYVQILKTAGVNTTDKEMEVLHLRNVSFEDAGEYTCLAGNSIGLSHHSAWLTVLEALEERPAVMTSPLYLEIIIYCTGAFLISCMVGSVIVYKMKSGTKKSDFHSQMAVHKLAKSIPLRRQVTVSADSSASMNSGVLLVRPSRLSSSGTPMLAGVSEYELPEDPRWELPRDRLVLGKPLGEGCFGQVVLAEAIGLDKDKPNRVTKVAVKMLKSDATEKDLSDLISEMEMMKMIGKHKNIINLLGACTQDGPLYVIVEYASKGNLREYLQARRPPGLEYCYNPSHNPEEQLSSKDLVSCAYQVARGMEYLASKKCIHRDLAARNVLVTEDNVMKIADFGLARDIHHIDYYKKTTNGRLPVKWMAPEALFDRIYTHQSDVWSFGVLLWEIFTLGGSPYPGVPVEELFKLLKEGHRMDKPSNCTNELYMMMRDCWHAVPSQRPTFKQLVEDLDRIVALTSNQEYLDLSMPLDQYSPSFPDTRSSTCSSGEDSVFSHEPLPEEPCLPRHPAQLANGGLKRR

Sequence | phosphorylation enrichment
MDDKEYFSVHN [MET_Y1234_Y1230D_YF] | 0.743
RNDLDYMDSRR [GAA_Y407_W402R] | 0.512
PELINCHQHNS [BTK_Y361_Y361C] | 0.682
KGVDRYNPENL [EIF3K_Y21_I18V] | 0.308
ANVIRYFPTQA [SLC25A4_Y81] | 0.524
STQAHYRLSAF [ADAMTS9_Y100_S96T] | 0.44
RIVEIYSRSLQ [GCH1_Y175_R178S] | 0.753
WQQQSYLFSGI [CTNNB1_Y30_D32Y_YF] | 0.473
DSKIRYLSADS [TTF1_Y476_E473K] | 0.457
DVFLKYLNFAT [PDE6B_Y212] | 0.535
GIVEEYQLPYY [BMPR1A_Y453] | 1.06
EVESPYEVHDF [GIGYF2_Y1168_YF] | 0.593
NYYDTCIKTCL [IQGAP2_Y1445_Y1445C] | 7.57
LWPIWYRCHRP [MRGPRX1_Y130] | 1.04
MKGDYYRYLAE [YWHAG_Y131] | 8.62
SGGCSYGSGGG [KRT1_Y539_G537C] | 0.402
EYGSGYPNDPK [RNASEH2A_Y210_D205E] | 0.433
FLLTVYSIFSK [SGCE_Y38] | 0.496
DNQFAYLKAII [HNF4A_Y288_E285Q_YF] | 0.473
IVAEFYDNLPH [DEGS1_Y284_A280V_YF] | 0.477
ENGPYYASYPP [GDAP2_Y488_T489A] | 2.69
ELAKFYKLHHI [AK7_Y391_N389K_YF] | 0.453
DRLAVYIDRVS [LMNA_Y45_R50S] | 0.463
LKLIQYHLIQQ [AKAP4_Y554_T557I] | 0.687
KGNMYYENSYA [EGFR_Y113_R108K] | 0.878
KTDKKYLMIKE [BAG3_Y451_E455K] | 0.423
YRQLPYCPSVE [CTNND2_Y508_Q507P] | 1.48
AAVLNYKAWRD [GRIN2A_Y737_G740W] | 0.534
RFLERDIFNRE [HLA-DPB1_Y57_Y57D_YF] | 0.682

target: Fyn (UniProt P06241); test: as above
Sequence (P06241 whole entry, looked up): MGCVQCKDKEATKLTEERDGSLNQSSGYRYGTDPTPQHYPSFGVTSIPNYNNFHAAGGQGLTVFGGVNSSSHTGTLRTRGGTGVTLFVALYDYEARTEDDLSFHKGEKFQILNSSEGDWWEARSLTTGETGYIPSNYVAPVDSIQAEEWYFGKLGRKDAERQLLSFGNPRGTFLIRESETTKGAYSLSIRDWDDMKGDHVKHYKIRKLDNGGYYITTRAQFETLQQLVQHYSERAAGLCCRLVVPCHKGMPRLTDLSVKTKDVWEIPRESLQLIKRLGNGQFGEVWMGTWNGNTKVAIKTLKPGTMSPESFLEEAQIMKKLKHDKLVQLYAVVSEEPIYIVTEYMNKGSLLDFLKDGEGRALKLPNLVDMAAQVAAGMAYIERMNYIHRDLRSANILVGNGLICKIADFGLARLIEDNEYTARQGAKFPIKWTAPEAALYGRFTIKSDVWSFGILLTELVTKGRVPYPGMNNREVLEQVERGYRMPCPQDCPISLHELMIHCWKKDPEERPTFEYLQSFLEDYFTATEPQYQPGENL

Sequence | phosphorylation enrichment
MDDKEYFSVHN [MET_Y1234_Y1230D_YF] | 0.411
RNDLDYMDSRR [GAA_Y407_W402R] | 0.455
PELINCHQHNS [BTK_Y361_Y361C] | 0.297
KGVDRYNPENL [EIF3K_Y21_I18V] | 0.415
ANVIRYFPTQA [SLC25A4_Y81] | 0.585
STQAHYRLSAF [ADAMTS9_Y100_S96T] | 0.461
RIVEIYSRSLQ [GCH1_Y175_R178S] | 1.52
WQQQSYLFSGI [CTNNB1_Y30_D32Y_YF] | 0.454
DSKIRYLSADS [TTF1_Y476_E473K] | 0.389
DVFLKYLNFAT [PDE6B_Y212] | 0.557
GIVEEYQLPYY [BMPR1A_Y453] | 0.647
EVESPYEVHDF [GIGYF2_Y1168_YF] | 5.32
NYYDTCIKTCL [IQGAP2_Y1445_Y1445C] | 1.52
LWPIWYRCHRP [MRGPRX1_Y130] | 0.798
MKGDYYRYLAE [YWHAG_Y131] | 0.741
SGGCSYGSGGG [KRT1_Y539_G537C] | 0.381
EYGSGYPNDPK [RNASEH2A_Y210_D205E] | 0.446
FLLTVYSIFSK [SGCE_Y38] | 2.59
DNQFAYLKAII [HNF4A_Y288_E285Q_YF] | 0.396
IVAEFYDNLPH [DEGS1_Y284_A280V_YF] | 0.549
ENGPYYASYPP [GDAP2_Y488_T489A] | 6.13
ELAKFYKLHHI [AK7_Y391_N389K_YF] | 0.566
DRLAVYIDRVS [LMNA_Y45_R50S] | 0.428
LKLIQYHLIQQ [AKAP4_Y554_T557I] | 0.553
KGNMYYENSYA [EGFR_Y113_R108K] | 0.515
KTDKKYLMIKE [BAG3_Y451_E455K] | 0.368
YRQLPYCPSVE [CTNND2_Y508_Q507P] | 0.647
AAVLNYKAWRD [GRIN2A_Y737_G740W] | 0.35
RFLERDIFNRE [HLA-DPB1_Y57_Y57D_YF] | 0.518
